{
  "source": "patent US12295987B2",
  "about": "“Method of using a GIP/GLP1 co-agonist for diabetes” (Eli Lilly and Company, priority 2018, dated 2025)",
  "note": "Numbered stars: 1 amine (or outer) side, 2 acyl side, 3 side chain; on linkers, the order of the positions; unused ones are H or OH. Square brackets hold non-standard residues; d marks the D form. Side chains are listed from the residue outwards. Ends that are not written are not given here. * marks the point of attachment. C20 diacid = O=C(O)CCCCCCCCCCCCCCCCCCC(=O)*; γGlu = O=C(O)[C@H](CCC(=O)[*:2])N[*:1]; αMeL = CC(C)C[C@](C)(N)C(=O)O; αMeK = C[C@](N)(CCCCN)C(=O)O; AEEA = NCCOCCOCC(=O)O; Aib = CC(C)(N)C(=O)O",
  "data": [
    {"molecular_target": "T1, human gastric inhibitory peptide receptor (hGIPR) (Homo sapiens, UniProt P48546)", "T1 construct": "expressed in transfected cells; host or cells: HEK293", "T1 sequence (P48546 22-466)": "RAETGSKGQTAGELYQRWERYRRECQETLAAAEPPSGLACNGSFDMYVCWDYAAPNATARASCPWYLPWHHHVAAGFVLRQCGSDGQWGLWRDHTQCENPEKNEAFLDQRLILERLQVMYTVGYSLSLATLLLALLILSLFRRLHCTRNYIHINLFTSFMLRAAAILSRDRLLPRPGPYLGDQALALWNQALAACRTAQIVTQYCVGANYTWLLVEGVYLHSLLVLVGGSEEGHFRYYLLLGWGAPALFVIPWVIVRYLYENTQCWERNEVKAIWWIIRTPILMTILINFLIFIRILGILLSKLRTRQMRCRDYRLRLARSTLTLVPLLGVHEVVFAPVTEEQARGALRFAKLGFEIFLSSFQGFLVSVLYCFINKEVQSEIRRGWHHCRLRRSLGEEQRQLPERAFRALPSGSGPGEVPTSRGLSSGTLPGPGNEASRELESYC", "assay": "cAMP pharmacological functional assay in presence of 0.1% casein, hGIPR", "type": "cell-based", "conditions": "ratio of hGIPR to hGLP1R cAMP EC50 ratios", "values": [
      {"substance": "Y-Aib-EGTFTSDYSI-αMeL-LDEK((2-[2-(2-Amino-ethoxy)-ethoxy]-acetyl)2-(γGlu)-CO—(CH2)18—CO2H)AQ-αMeK-AFIEYLLEGGPSSGAPPPS-NH2 (Y[Aib]EGTFTSDYSI[αMeL]LDEK([AEEA-AEEA-γGlu-C20 diacid])AQ[αMeK]AFIEYLLEGGPSSGAPPPS-NH2; N-terminus assumed; SMILES CC[C@H](C)[C@H](NC(=O)[C@H](Cc1ccccc1)NC(=O)[C@H](C)NC(=O)[C@](C)(CCCCN)NC(=O)[C@H](CCC(N)=O)NC(=O)[C@H](C)NC(=O)[C@H](CCCCNC(=O)COCCOCCNC(=O)COCCOCCNC(=O)CC[C@H](NC(=O)CCCCCCCCCCCCCCCCCCC(=O)O)C(=O)O)NC(=O)[C@H](CCC(=O)O)NC(=O)[C@H](CC(=O)O)NC(=O)[C@H](CC(C)C)NC(=O)[C@](C)(CC(C)C)NC(=O)[C@@H](NC(=O)[C@H](CO)NC(=O)[C@H](Cc1ccc(O)cc1)NC(=O)[C@H](CC(=O)O)NC(=O)[C@H](CO)NC(=O)[C@@H](NC(=O)[C@H](Cc1ccccc1)NC(=O)[C@@H](NC(=O)CNC(=O)[C@H](CCC(=O)O)NC(=O)C(C)(C)NC(=O)[C@@H](N)Cc1ccc(O)cc1)[C@@H](C)O)[C@@H](C)O)[C@@H](C)CC)C(=O)N[C@@H](CCC(=O)O)C(=O)N[C@@H](Cc1ccc(O)cc1)C(=O)N[C@@H](CC(C)C)C(=O)N[C@@H](CC(C)C)C(=O)N[C@@H](CCC(=O)O)C(=O)NCC(=O)NCC(=O)N1CCC[C@H]1C(=O)N[C@@H](CO)C(=O)N[C@@H](CO)C(=O)NCC(=O)N[C@@H](C)C(=O)N1CCC[C@H]1C(=O)N1CCC[C@H]1C(=O)N1CCC[C@H]1C(=O)N[C@@H](CO)C(N)=O) [Peptide 21]", "[hGIPR/hGLP1R] EC50 Ratio": 4.85},
      {"substance": "Y-Aib-EGTFTSDYSI-αMeL-LDKIAQ-Aib-AFIEYLIK((2-[2-(2-Amino-ethoxy)-ethoxy]-acetyl)2-(γGlu)-CO—(CH2)18—CO2H)GG-NH2 (YXEGTFTSDYSIXLDKIAQXAFIEYLIKGG; Aib, αMeL; K lipidated C20 diacid-γGlu-AEEA2; C-terminal amide; (2)..(2) Xaa at position 2 is Aib; (13)..(13) Xaa at position 13 is alpha-methyl-Leu; (20)..(20) Xaa at position 20 is Aib; MOD_RES (28)..(28) Lys at position 28 is chemically modified by conjugation of the epsilon-amino group of the Lys side chain with (2-[2-(2-amino-ethoxy)-ethoxy]-acetyl)2-(gamma-Glu)-CO-(CH2)18- CO2H; MOD_RES (30)..(30) Gly at position 30 is amidated) [Peptide 97]", "[hGIPR/hGLP1R] EC50 Ratio": 3.56},
      {"substance": "Y-Aib-EGTFTSDYSI-αMeL-LDKK((2-[2-(2-Amino-ethoxy)-ethoxy]-acetyl)2-(γGlu)-CO—(CH2)18—CO2H)AQ-Aib-AFIEYLIEGG-NH2 (YXEGTFTSDYSIXLDKKAQXAFIEYLIEGG; Aib, αMeL; K lipidated C20 diacid-γGlu-AEEA2; C-terminal amide; (2)..(2) Xaa at position 2 is Aib; (13)..(13) Xaa at position 13 is alpha-methyl-Leu; MOD_RES (17)..(17) Lys at position 17 is chemically modified by conjugation of the epsilon-amino group of the Lys side chain with (2-[2-(2-amino-ethoxy)-ethoxy]-acetyl)2-(gamma-Glu)-CO-(CH2)18- CO2H; (20)..(20) Xaa at position 20 is Aib; MOD_RES (30)..(30) Gly at position 30 is amidated) [Peptide 62]", "[hGIPR/hGLP1R] EC50 Ratio": 5.03},
      {"substance": "Y-Aib-EGTFTSDYSI-αMeL-LDKK((2-[2-(2-Amino-ethoxy)-ethoxy]-acetyl)2-(γGlu)-CO—(CH2)18—CO2H)AQ-Aib-AFIEYLIEGGPSSGAPPPS-NH2 (YXEGTFTSDYSIXLDKKAQXAFIEYLIEGGPSSGAPPPS; Aib, αMeL; lipidated K; C-terminal amide; (2)..(2) Xaa at position 2 is Aib; (13)..(13) Xaa at position 13 is alpha-methyl-Leu; MOD_RES (17)..(17) Lys at position 17 is chemically modified by conjugation of the epsilon-amino group of the Lys side chain with (2-[2-(2-amino-ethoxy)-ethoxy]-acetyl)2-(gamma-Glu)-CO-(CH2)18- CO2H; (20)..(20) Xaa at position 20 is Aib; MOD_RES (39)..(39) Ser at position 39 is amidated) [Peptide 20]", "[hGIPR/hGLP1R] EC50 Ratio": 4.87},
      {"substance": "Y-Aib-EGTFTSDYSI-αMeL-LDSK((2-[2-(2-Amino-ethoxy)-ethoxy]-acetyl)2-(γGlu)-CO—(CH2)18—CO2H)AQ-Aib-AFIEYLIEGG-NH2 (YXEGTFTSDYSIXLDSKAQXAFIEYLIEGG; Aib, αMeL; K lipidated C20 diacid-γGlu-AEEA2; C-terminal amide; (2)..(2) Xaa at position 2 is Aib; (13)..(13) Xaa at position 13 is alpha-methyl-Leu; MOD_RES (17)..(17) Lys at position 17 is chemically modified by conjugation of the epsilon-amino group of the Lys side chain with (2-[2-(2-amino-ethoxy)-ethoxy]-acetyl)2-(gamma-Glu)-CO-(CH2)18- CO2H; (20)..(20) Xaa at position 20 is Aib; MOD_RES (30)..(30) Gly at position 30 is amidated) [Peptide 64]", "[hGIPR/hGLP1R] EC50 Ratio": 3.66},
      {"substance": "Y-Aib-EGTFTSDYSI-αMeL-LDSK((2-[2-(2-Amino-ethoxy)-ethoxy]-acetyl)2-(γGlu)-CO—(CH2)18—CO2H)AQ-Aib-AFIEYLIEGGPSSGAPPPS-NH2 (YXEGTFTSDYSIXLDSKAQXAFIEYLIEGGPSSGAPPPS; Aib, αMeL, lipidated Lys, C-terminal amide; (2)..(2) Xaa at position 2 is Aib; (13)..(13) Xaa at position 13 is alpha-methyl-Leu; MOD_RES (17)..(17) Lys at position 17 is chemically modified by conjugation of the epsilon-amino group of the Lys side chain with (2-[2-(2-amino-ethoxy)-ethoxy]-acetyl)2-(gamma-Glu)-CO-(CH2)18- CO2H; (20)..(20) Xaa at position 20 is Aib; MOD_RES (39)..(39) Ser at position 39 is amidated) [Peptide 52]", "[hGIPR/hGLP1R] EC50 Ratio": 2.72},
      {"substance": "Y-Aib-EGTFTSDYSI-αMeL-LDTK((2-[2-(2-Amino-ethoxy)-ethoxy]-acetyl)2-(γGlu)-CO—(CH2)18—CO2H)AQ-Aib-AFIEYLIEGG-NH2 (YXEGTFTSDYSIXLDTKAQXAFIEYLIEGG; Aib, αMeL; K lipidated C20 diacid-γGlu-AEEA2; C-terminal amide; (2)..(2) Xaa at position 2 is Aib; (13)..(13) Xaa at position 13 is alpha-methyl-Leu; MOD_RES (17)..(17) Lys at position 17 is chemically modified by conjugation of the epsilon-amino group of the Lys side chain with (2-[2-(2-amino-ethoxy)-ethoxy]-acetyl)2-(gamma-Glu)-CO-(CH2)18- CO2H; (20)..(20) Xaa at position 20 is Aib; MOD_RES (30)..(30) Gly at position 30 is amidated) [Peptide 65]", "[hGIPR/hGLP1R] EC50 Ratio": 4.46},
      {"substance": "Y-Aib-EGTFTSDYSIK((2-[2-(2-Amino-ethoxy)-ethoxy]-acetyl)2-(γGlu)-CO—(CH2)18—CO2H)LDKIAQ-Aib-AFIEYLIEGGPSSGAPPPS-NH2 (Y[Aib]EGTFTSDYSIK([AEEA-AEEA-γGlu-C20 diacid])LDKIAQ[Aib]AFIEYLIEGGPSSGAPPPS-NH2; N-terminus assumed; SMILES CC[C@H](C)[C@H](NC(=O)[C@H](CCCCN)NC(=O)[C@H](CC(=O)O)NC(=O)[C@H](CC(C)C)NC(=O)[C@H](CCCCNC(=O)COCCOCCNC(=O)COCCOCCNC(=O)CC[C@H](NC(=O)CCCCCCCCCCCCCCCCCCC(=O)O)C(=O)O)NC(=O)[C@@H](NC(=O)[C@H](CO)NC(=O)[C@H](Cc1ccc(O)cc1)NC(=O)[C@H](CC(=O)O)NC(=O)[C@H](CO)NC(=O)[C@@H](NC(=O)[C@H](Cc1ccccc1)NC(=O)[C@@H](NC(=O)CNC(=O)[C@H](CCC(=O)O)NC(=O)C(C)(C)NC(=O)[C@@H](N)Cc1ccc(O)cc1)[C@@H](C)O)[C@@H](C)O)[C@@H](C)CC)C(=O)N[C@@H](C)C(=O)N[C@@H](CCC(N)=O)C(=O)NC(C)(C)C(=O)N[C@@H](C)C(=O)N[C@@H](Cc1ccccc1)C(=O)N[C@H](C(=O)N[C@@H](CCC(=O)O)C(=O)N[C@@H](Cc1ccc(O)cc1)C(=O)N[C@@H](CC(C)C)C(=O)N[C@H](C(=O)N[C@@H](CCC(=O)O)C(=O)NCC(=O)NCC(=O)N1CCC[C@H]1C(=O)N[C@@H](CO)C(=O)N[C@@H](CO)C(=O)NCC(=O)N[C@@H](C)C(=O)N1CCC[C@H]1C(=O)N1CCC[C@H]1C(=O)N1CCC[C@H]1C(=O)N[C@@H](CO)C(N)=O)[C@@H](C)CC)[C@@H](C)CC) [Peptide 26]", "[hGIPR/hGLP1R] EC50 Ratio": 2.46}
    ]}
  ]
}
